Results from patent US20240002497A1 (Merck Sharp & Dohme, published 2024).
Positions count from the first letter of the chain named. Names may count otherwise.

B1: F010302334 (VHH)
VHH: EVQLVESGGGVVQPGGSLRLSCAASSRQFIRDVFTGWYRRAPGKQRELVARIYNEGNTQYADSAKGRFTISRDNAKKTVYLQMNSLRPEDTALYYCLFSGTISTGREYRSGDYWGQGTLVTVSS
B2: F010302335 (VHH)
VHH: B1 VHH with N54E, E55S
B3: F010302336 (VHH)
VHH: B1 VHH with S26H
B4: F010302338 (VHH)
VHH: B1 VHH with S26H, Q28A, N54E, E55S
B5: F010302340 (VHH)
VHH: B1 VHH with S26H, Q28A, V33L, N54E, E55S, Q59N
B6: F010302342 (VHH)
VHH: B1 VHH with R40Q
B7: F010302343 (VHH)
VHH: B1 VHH with R40Q, N54E, E55S
B8: F010302344 (VHH)
VHH: B1 VHH with S26H, R40Q
B9: F010302345 (VHH)
VHH: B1 VHH with S26H, R40Q, N54E, E55G
B10: F010302346 (VHH)
VHH: B1 VHH with S26H, Q28A, R40Q, N54E, E55S
B11: F010302348 (VHH)
VHH: B1 VHH with S26H, Q28A, V33L, R40Q, N54E, E55S, Q59N
B12: F010302350 (VHH)
VHH: B1 VHH with A64V
B13: F010302351 (VHH)
VHH: B1 VHH with N54E, E55S, A64V
B14: F010302352 (VHH)
VHH: B1 VHH with S26H, A64V
B15: F010302353 (VHH)
VHH: B1 VHH with S26H, N54E, E55G, A64V
B16: F010302354 (VHH)
VHH: B1 VHH with S26H, Q28A, N54E, E55S, A64V
B17: F010302356 (VHH)
VHH: B1 VHH with S26H, Q28A, V33L, N54E, E55S, Q59N, A64V
B18: F010302358 (VHH)
VHH: B1 VHH with R40Q, A64V
B19: F010302359 (VHH)
VHH: B1 VHH with R40Q, N54E, E55S, A64V
B20: F010302360 (VHH)
VHH: B1 VHH with S26H, R40Q, A64V
B21: F010302361 (VHH)
VHH: B1 VHH with S26H, R40Q, N54E, E55G, A64V
B22: F010302362 (VHH)
VHH: B1 VHH with S26H, Q28A, R40Q, N54E, E55S, A64V
B23: F010302364 (VHH)
VHH: B1 VHH with S26H, Q28A, V33L, R40Q, N54E, E55S, Q59N, A64V
B24: F010302312 (VHH)
VHH: EVQLVESGGGVVQPGGSLRLSCAASGPVFNINRMAWYRQAPGKQRELVAYVTPTGDISYADSVKGRFTISRDGSKRVYLQMNSLRPEDTALYYCRALLQPDSYSITRTYWGQGTLVTVSS
notes: also called F0103387G04(L11V, A12V, K33R, R39Q, S50Y, S56D, T60A, W78V, S79Y, T83R, V89L, N93R, N100cI)
B25: F010301656 (VHH)
VHH: B24 VHH with V11L, V12A, Q39R, A60T, V77W, Y78S, R85T, L91V, I105N
notes: also called F0103387G04(K33R, S50Y, S56D, N93R)
B26: F010301841 (VHH)
VHH: B24 VHH with A60T, V77W, Y78S, I105N
notes: also called F0103387G04(L11V, A12V, K33R, R39Q, S50Y, S56D, T83R, V89L, N93R)
B27: F010301842 (VHH)
VHH: B24 VHH with V77W, Y78S, I105N
notes: also called F0103387G04(L11V, A12V, K33R, R39Q, S50Y, S56D, T60A, T83R, V89L, N93R)
B28: F010301843 (VHH)
VHH: B24 VHH with A60T, G73N, V77W, Y78S, I105N
notes: also called F0103387G04(L11V, A12V, K33R, R39Q, S50Y, S56D, G73N, T83R, V89L, N93R)
B29: F010301844 (VHH)
VHH: B24 VHH with A60T, R76N, V77W, Y78S, I105N
notes: also called F0103387G04(L11V, A12V, K33R, R39Q, S50Y, S56D, R76N, T83R, V89L, N93R)
B30: F010301845 (VHH)
VHH: B24 VHH with A60T, Y78S, I105N
notes: also called F0103387G04(L11V, A12V, K33R, R39Q, S50Y, S56D, W78V, T83R, V89L, N93R)
B31: F010301846 (VHH)
VHH: B24 VHH with A60T, V77W, I105N
notes: also called F0103387G04(L11V, A12V, K33R, R39Q, S50Y, S56D, S79Y, T83R, V89L, N93R)
B32: F010301847 (VHH)
VHH: B24 VHH with G73N, R76N, I105N
notes: also called F0103387G04(L11V, A12V, K33R, R39Q, S50Y, S56D, T60A, G73N, R76N, W78V, S79Y, T83R, V89L, N93R)
B33: F010301848 (VHH)
VHH: B24 VHH with G73N, I105N
notes: also called F0103387G04(L11V, A12V, K33R, R39Q, S50Y, S56D, T60A, G73N, W78V, S79Y, T83R, V89L, N93R)
B34: F010301866 (VHH)
VHH: B24 VHH with R76N, I105N
notes: also called F0103387G04(L11V, A12V, K33R, R39Q, S50Y, S56D, T60A, R76N, W78V, S79Y, T83R, V89L, N93R)
B35: F010302319 (VHH)
VHH: B24 VHH with G73A, S102R
notes: also called F0103387G04(L11V, A12V, K33R, R39Q, S50Y, S56D, T60A, G73A, W78V, S79Y, T83R, V89L, N93R, S100R, N100cI)-FLAG3-HIS6
B36: F010302321 (VHH)
VHH: B24 VHH with G73R, S102R
notes: also called F0103387G04(L11V, A12V, K33R, R39Q, S50Y, S56D, T60A, G73R, W78V, S79Y, T83R, V89L, N93R, S100R, N100cI)-FLAG3-HIS6
B37: F010302324 (VHH)
VHH: B24 VHH with G73R, D101R, S102R
notes: also called F0103387G04(L11V, A12V, K33R, R39Q, S50Y, S56D, T60A, G73R, W78V, S79Y, T83R, V89L, N93R, D99R, S100R, N100cI)

Molecular target: T1, huNav1.7α + β1-β2-β3 (human, UniProt Q15858 1-1988; A5A6L6 19-218; O60939 30-215; Q2KI11 23-215)
T1 construct: also called huNav1.7-beta1-beta2-beta3; huNav1.7-β1-β2-β3
Test: binding FACS, CHO FlpIn
Method: (§1) Binding of the ISVDs to cell-expressed Nav1.7α was detected via murine anti-Flag (Sigma, catalog #F1804). Briefly, cells were resuspended in FACS buffer (PBS, 10% FBS, NaN₃) and transferred to a 96-well V-bottom plate at 1×10^5 cells/well. Purified FLAG3-tagged ISVD was diluted in FACS buffer and added to the cells for 30 minutes at 4° C. […] Prior to the read-out, the samples were resuspended in 1 μg/mL propidium iodide (Sigma, catalog #P4170) to exclude dead cells. Between each step, the cells were centrifuged for 5 minutes at 200 grams and washed with 100 μL/well FACS buffer.

Binder	Bmax	EC50
B1	100%	4 nM
B2	100%	4.1 nM
B3	100%	3.6 nM
B4	100%	3.4 nM
B5	100%	4.6 nM
B6	100%	4 nM
B7	100%	6.4 nM
B8	100%	4.3 nM
B9	100%	4.9 nM
B10	100%	5 nM
B11	100%	6.7 nM
B12	100%	3.5 nM
B13	100%	5.6 nM
B14	100%	3.6 nM
B15	100%	4.2 nM
B16	100%	4.2 nM
B17	100%	5.3 nM
B18	100%	4.5 nM
B19	100%	6.4 nM
B20	100%	3.5 nM
B21	100%	4.8 nM
B22	100%	5.4 nM
B23	100%	7.2 nM

Molecular target: T2, rhNav1.7α + β1-β2-β3 (rhesus monkey)
T2 construct: also called rhNav1.7-beta1-beta2-beta3; rhNav1.7-β1-β2-β3
Test: binding FACS, CHO FlpIn
Method: as §1

Binder	Bmax	EC50
B1	70%	11 nM
B2	84%	13 nM
B3	79%	9.7 nM
B4	100%	7.9 nM
B5	96%	13 nM
B6	61%	16 nM
B7	84%	18 nM
B8	78%	13 nM
B9	96%	12 nM
B10	99%	12 nM
B11	95%	14 nM
B12	46%	15 nM
B13	72%	15 nM
B14	60%	11 nM
B15	93%	7.9 nM
B16	96%	7.9 nM
B17	81%	12 nM
B18	37%	37 nM
B19	66%	24 nM
B20	58%	15 nM
B21	92%	11 nM
B22	89%	14 nM
B23	74%	17 nM

Molecular target: T3, huNav1.7α + β1-β2-β3 (human Nav1.7α co-expressed with human Navβ1, Navβ2 and Navβ3 on cells) (human)
T3 construct: also called huNav1.7-beta1-beta2-beta3; CHO FlpIn huNav1.7α + β1-β2-β3
Test: binding FACS, CHO FlpIn cells
Method: as §1

Binder	Bmax	EC50
B24	100%	24 nM
B25	100%	17 nM
B26	100%	14 nM
B27	100%	15 nM
B28	100%	18 nM
B29	100%	23 nM
B30	100%	17 nM
B31	100%	21 nM
B32	100%	67 nM
B33	100%	44 nM
B34	100%	38 nM
B35	88%	15 nM
B36	91%	7.9 nM
B37	42%	29 nM

Molecular target: T4, rhNav1.7α + β1-β2-β3 (rhesus Nav1.7α co-expressed with Navβ1, Navβ2 and Navβ3 on cells) (rhesus monkey (α subunit); β subunits …)
T4 construct: also called rhNav1.7-beta1-beta2-beta3; CHO FlpIn rhNav1.7α + β1-β2-β3
Test: binding FACS, CHO FlpIn cells
Method: as §1

Binder	Bmax	EC50
B24	100%	18 nM
B25	100%	8 nM
B26	100%	7.6 nM
B27	100%	7.9 nM
B28	100%	9.3 nM
B29	100%	11 nM
B30	100%	8 nM
B31	100%	11 nM
B32	100%	29 nM
B33	100%	19 nM
B34	100%	18 nM
